{"source": "patent US5795974", "key": {"[1]": {"biological_target": "I-Eα chain of the murine MHC (class II) (mouse)"}, "[2]": {"biological_target": "Vβ 1 TCR on T hybridoma"}, "[3]": {"biological_target": "Vβ 11 TCR on T hybridoma"}, "[4]": {"biological_target": "Vβ 3 TCR on T hybridoma"}, "[5]": {"biological_target": "Vβ 6 TCR on T hybridoma"}, "[6]": {"biological_target": "Vβ 8.2 TCR on T hybridoma"}}}
{"substance": "MBP-MAM fusion protein", "values": [{"measurement": "Uptake of 3H-TdR by Mouse Lymphocytes (counts per minute × 10^-3)", "setting": "[1]", "result": 80.7}]}
{"substance": "Native Mycoplasma arthritidis T-cell mitogen (MAM) (ligand)", "values": [{"measurement": "IL-2 (U/ml) produced by T hybridomas + APCs", "setting": "[2]", "result": 0, "unit": "U/ml"}, {"measurement": "IL-2 (U/ml) produced by T hybridomas + APCs", "setting": "[3]", "result": 0, "unit": "U/ml"}, {"measurement": "IL-2 (U/ml) produced by T hybridomas + APCs", "setting": "[4]", "result": 0, "unit": "U/ml"}, {"measurement": "IL-2 (U/ml) produced by T hybridomas + APCs", "setting": "[5]", "result": 640, "unit": "U/ml"}, {"measurement": "IL-2 (U/ml) produced by T hybridomas + APCs", "setting": "[6]", "result": 232, "unit": "U/ml"}, {"measurement": "Uptake of 3H-TdR by Mouse Lymphocytes (counts per minute × 10^-3)", "setting": "[1]", "result": 108}]}
{"substance": "Staphylococcus enterotoxin A (from UniProt P0A0L2) (ligand)", "values": [{"measurement": "IL-2 (U/ml) produced by T hybridomas + APCs", "setting": "[2]", "result": 691, "unit": "U/ml"}, {"measurement": "IL-2 (U/ml) produced by T hybridomas + APCs", "setting": "[3]", "result": 1180, "unit": "U/ml"}, {"measurement": "IL-2 (U/ml) produced by T hybridomas + APCs", "setting": "[4]", "result": 1880, "unit": "U/ml"}, {"measurement": "IL-2 (U/ml) produced by T hybridomas + APCs", "setting": "[6]", "result": 0, "unit": "U/ml"}]}
{"substance": "Staphylococcus enterotoxin B (from UniProt P01552) (ligand)", "values": [{"measurement": "IL-2 (U/ml) produced by T hybridomas + APCs", "setting": "[2]", "result": 0, "unit": "U/ml"}, {"measurement": "IL-2 (U/ml) produced by T hybridomas + APCs", "setting": "[3]", "result": 0, "unit": "U/ml"}, {"measurement": "IL-2 (U/ml) produced by T hybridomas + APCs", "setting": "[4]", "result": 1830, "unit": "U/ml"}, {"measurement": "IL-2 (U/ml) produced by T hybridomas + APCs", "setting": "[5]", "result": 0, "unit": "U/ml"}, {"measurement": "IL-2 (U/ml) produced by T hybridomas + APCs", "setting": "[6]", "result": 608, "unit": "U/ml"}]}
